Tests used:
Type in all cases: biochemical
[1] = Enzyme assay on soluble/microsomal preparations of S. cerevisiae expressing STORR fusion or modules, substrate 1,2-dehydroreticuline; settings: soluble or microsomal preparations from S. cerevisiae; 100 μM substrate, 1 mM NADPH, 37° C. 3 hours
Description: Genscript created synthetic DNA sequences were created for PsCPR [Genbank accession AAC05021, (Rosco A. et al. (1997) Arch. Biochem. Biophys. 348, 369-77), the full length STORR (CYP82Y2-Oxidoreductatse (“Oxired”)) protein, the N-terminal CYP82Y2 module and C-terminal oxidoreductase (Oxidoreductase) module, that were codon optimised for expression is Saccharomyces cerevisiae. The codon-optimized sequences are provided with the SEQ ID NO 30-33.
Expression vector pESC-TRP::soloxired was created by digesting the corresponding PCR product with NotI and PacI and inserting this behind the GAL10 promoter of pESC-TRP. pESC-TRP::CPR was created by digesting the corresponding PCR product with BamHI and XhoI and inserting this behind the GAL1 promoter of pESC-TRP. This was then used to created pESC-TRP::CPR::CYP82Y2 and pESC-TRP::CPR::CYP82Y2-Oxidoreductase. These plasmids were then transformed in S. cerevisiae G175 (Sorger D. et al. (2004) J. Biol. Chem. 279, 31190-6) using lithium acetate protocol (Geitz R. D. and Woods R. A. (2002) Methods in Enzymology 350, 87-96). Yeasts were cultivated in Synthetic Defined (SD) medium composed of 2% carbon source, 0.5% ammonium sulfate, 1.7 g L^−1 yeast nitrogen base (without amino acids and ammonium sulfate) and 1.92 g L^−1 or tryptophan drop-out supplement (Sigma-Aldrich, Gillingham, UK). Cultures grown using glucose as a carbon source were used to inoculate 200 ml cultures with raffinose as a carbon source to an OD 600 nm of 0.10 in 1 L conical flasks. […]
Enzymes assays were set up in 250 μL volumes containing final concentrations of 50 mM Bis-tris propane buffer, 1 mM NADPH and 100 μM of substrate. […] The extract was then dissolved in 100 μL of 50:50:0.1 hexane/ethanol/diethylamine and analysed by the chiral HPLC method to determine the relative amounts of (R)- and (S)-reticuline.
Poppy capsules were processed and analysed by UPLC-MS and R-scripts as previously described (“the standard method”; (Winzer T. et al. (2012) Science 336, 1704-8)). […]

[2] = Recombinant oxidoreductase enzyme assay (E. coli-expressed, purified), substrate coclaurine
Protocol: (§1) The coding sequences of oxidoreductase A and B (Seq ID NO 6 and NO 10, respectively) were codon optimised for expression in E. coli and the synthetic genes were cloned into the vector pET28 to yield a recombinant C-terminal 6×-His tagged enzymes (GenScript, Piscataway, N.J., USA). The constructs were transformed into E. coli Arctic express strain (Agilent Technologies, Wokingham, UK). Per construct, 3-5 freshly transformed Arctic express E. coli colonies were pre-inoculated in 10 mL 2YT medium containing 100 mg/L kanamycin and 20 mg/L gentamycin and incubated at 37° C. overnight. A 5-mL aliquot was used to inoculate 500 mL of the above medium not containing antibiotics and cells were allowed to grow at 30° C. until OD600=0.5-0.7. A 1-mL aliquot of the uninduced cells was removed and spun down at 14,000×g and the cell pellet was lysed in SDS-PAGE sample buffer. 1 mM IPTG was added to the culture and then incubated at 20° C. for 24 h. Cells were then harvested following a 5 min spin at 5,000×g and resuspended in 20 mL ice-cold extraction buffer (0.1 M Tris pH 8, 0.3 M NaCl, 0.1% (v/v) Tween 20 and Halt EDTA-free protease inhibitor cocktail (Pierce/Thermoscientific, Cramlington, UK)). Bacterial suspensions were lysed in a French Press at 4° C. using a 25 kpsi disruption cycle (Model TS0.75 KU, Constant Cell Disruption Systems, Daventry, UK). Cell lysates were then spun down at 12,000×g for 20 min at 4° C. and thus fractionated into supernatant (soluble fraction) and pellet.
(§2) A 20 mL soluble fraction was filtered through a 0.45 μm syringe filter and the His-tagged proteins were purified using a His Trap Fast Flow crude 5 mL column (GE Healthcare, Little Chalfont, UK) installed in an AKTA Purifier UPC 10 System (GE Healthcare, Sweden) at 4° C. under the following steps: column equilibration in 50 mL 0.1 M Tris pH 8, 0.3 M NaCl, 0.1% (v/v) Tween 20 at 2 mL/min; sample loading at 0.4 mL/min; column wash in 50 mL 0.1 M Tris pH 8, 0.3 M NaCl, 0.1% (v/v) Tween 20, 5 mM imidazole at 2 mL/min; elution in 100 mL 0.1 M Tris pH 8, 0.3 M NaCl, 0.1% (v/v) Tween 20, and a 10-500 mM imidazole gradient at 2 mL/min. Two mL fractions were individually collected. Protein absorbance at 280 nm was monitored throughout the purification procedure. Elution fractions showing absorbance peaks were collected and analysed through SDS-PAGE. Purified proteins (Seq ID NO 3 and 11, respectively) were quantified using Coomassie Plus Protein Assay (Pierce/Thermoscientific, Cramlington, UK) and desalted to remove any inhibitors/interferents using 10 mL Zeba Spin Desalting Columns MWCO 7K, (Pierce/Thermoscientific, Cramlington, UK) pre-equilibrated in 20 mM Potassium Phosphate buffer pH 7.
(§3) General reaction set up was carried out as previously described (Lenz & Zenk, 1995, FEBS 233:132-139). Substrates (S)-reticuline, 1,2-dehydroreticuline and coclaurine were purchased from TRC Chemicals (Toronto, Canada) and codeinone was supplied by MacFarlan-Smith (Edinburgh, UK). Assay reactions contained […], 5 μg oxidoreductase A or B preparation, 100 mM buffer covering a range of pH values (potassium phosphate pH 6-8, glycine-NaOH pH 9) and 75 μM substrate. Reactions were incubated for 2 h at 37° C. and immediately frozen at −80° C. Reactions were dried down to powder in speedvac Gene Vac EZ-2 plus (Ipswich, UK) at 40° C. and resuspended in 100 μL 1:1 Hexane:Ethanol (v/v), 0.1% Diethylamine (v/v). […]

[3] = Recombinant oxidoreductase enzyme assay (E. coli-expressed, purified), substrate (S)-reticuline
Protocol: as §1, §2, §3

[4] = Recombinant oxidoreductase enzyme assay (E. coli-expressed, purified), substrate 1,2-dehydroreticuline
Protocol: as §1, §2, §3

[5] = Recombinant oxidoreductase enzyme assay (E. coli-expressed, purified), substrate codeinone; settings: for nmol product formation at pH 6.0 / nmol product formation at pH 7.0 / nmol product formation at pH 8.0 / nmol product formation at pH 9.0: substrate codeinone
Protocol: as §1, §2
General reaction set up was carried out as previously described (Lenz & Zenk, 1995, FEBS 233:132-139). Substrates (S)-reticuline, 1,2-dehydroreticuline and coclaurine were purchased from TRC Chemicals (Toronto, Canada) and codeinone was supplied by MacFarlan-Smith (Edinburgh, UK). Assay reactions contained […], 5 μg oxidoreductase A or B preparation, 100 mM buffer covering a range of pH values (potassium phosphate pH 6-8, glycine-NaOH pH 9) and 75 μM substrate. Reactions were incubated for 2 h at 37° C. and immediately frozen at −80° C. Reactions were dried down to powder in speedvac Gene Vac EZ-2 plus (Ipswich, UK) at 40° C. and resuspended in 100 μL 1:1 Hexane:Ethanol (v/v), 0.1% Diethylamine (v/v).
Chiral separations were performed following the method previously described (Iwasa et al., 2009, Phytochem 70:198-206) and carried out on a TSP HPLC system equipped with a UV6000 LP detector, a P4000 pump and an AS 3000 autosampler (Thermo Separation Products/Thermoscientific, Waltham, Mass., USA) connected to a mass spectrometer LCQ Classic mass spectrometer (Finnigan Mat, San Jose, Calif., USA). A Lux 5μ Cellulose 3 250×4.6 mm column (Phenomenex, Macclesfield, UK) was used for separations. […]

[6] = NADPH dependent reduction, pH 6 to 9
[7] = product neopine, triplicate mean ± SD

B1: oxidoreductase module: C-terminal oxidoreductase module of STORR (codon optimized SEQ ID NO 33) expressed in S. cerevisiae (protein)
chain: MESSGVPVITLGSGKVMPVLGMGTFEKVGKGSERERLAILKAIEVGYRYFDTAAAYETEEVLGEAIAEALQLGLVKSRDELFISSMLWCTDAHADRVLLALQNSLRNLKLEYVDLYMLPFPASLKPGKITMDIPEEDICRMDYRSVWAAMEECQNLGFTKSIGVSNFSCKKLQELMATANIPPAVNQVEMSPAFQQKKLREYCNANNILVSAISVLGSNGTPWGSNAVLGSEVLKKIAMAKGKSVAQVSMRWVYEQGASLVVKSFSEERLRENLNIFDWELTKEDHEKIGEIPQCRILSAYFLVSPNGPFKSQEELWDDEA
modifications: Yeast codon optimised Oxidoreductase
conversion efficiency of 1,2-dehydroreticuline to (R)-reticuline [1]: 100%

B2: Oxidoreductase B: Recombinant His-tagged close homologue (96% amino acid identity) of oxidoreductase A (SEQ ID NO 11), expressed in E. coli (protein, listed as Papaver somniferum)
chain: MESSGVPVITLSSGKLMPVLGMGTFEKVGKGSERERLVILKAIEVGYRYFDTAAAYETEEVLGEAIAEALQLGLIKSRDELFISSMLWCTDAHPDRVLLALQNSLRNLKLEYLDLYMLPFPVSLKPGKITMDIQEEDICRMDYRSVWAAMEECQNLGFTKSIGVSNFSCKKLQELMATANIPPDVNQVEMSPAFQQKKLRDYCNANNILVSAVSILGSNGTPWGSNAVLGSEVLRKIAMAKGKSVAQVSMRWVYDQGASLVVKSFSEERLRENLNIFDWELTKEDHEKIGEIPQCRILSAYFLVSPNGPFKSQEELWDDEA
modifications: His tag
transformation of the substrate coclaurine (in words) ([2]; pH 6 to 9): no transformation of the substrate | nmol product formation at pH 6.0 ([2]; substrate coclaurine, no product observed, pH 6.0, 75 μM substrate, NADPH, 2 h 37° C., triplicate mean ± SD): 0.0 nmol | nmol product formation at pH 7.0 ([2]; substrate coclaurine, no product observed, pH 7.0): 0.0 nmol | nmol product formation at pH 8.0 ([2]; substrate coclaurine, no product observed, pH 8.0): 0.0 nmol | nmol product formation at pH 9.0 ([2]; substrate coclaurine, no product observed, pH 9.0): 0.0 nmol | transformation of the substrate (S)-reticuline (in words) ([3]; pH 6 to 9): no transformation of the substrate | nmol product formation at pH 6.0 ([3]; substrate (S)-reticuline, expected product dehydroreticuline, pH 6.0): 0.0 nmol | nmol product formation at pH 7.0 ([3]; substrate (S)-reticuline, expected product dehydroreticuline, pH 7.0): 0.0 nmol | nmol product formation at pH 8.0 ([3]; substrate (S)-reticuline, expected product dehydroreticuline, pH 8.0): 0.0 nmol | nmol product formation at pH 9.0 ([3]; substrate (S)-reticuline, expected product dehydroreticuline, pH 9.0): 0.0 nmol | conversion of 1,2-dehydroreticuline to (R)-reticuline (in words) ([4]; pH 6 to 9): efficiently converted | nmol product formation at pH 6.0 ([4]; substrate dehydroreticuline, product (R)-reticuline, pH 6.0, triplicate mean ± SD): 0.148 ± 0.036 nmol | nmol product formation at pH 7.0 ([4]; substrate dehydroreticuline, product (R)-reticuline, pH 7.0, triplicate mean ± SD): 0.130 ± 0.021 nmol | nmol product formation at pH 8.0 ([4]; substrate dehydroreticuline, product (R)-reticuline, pH 8.0, triplicate mean ± SD): 0.164 ± 0.020 nmol | nmol product formation at pH 9.0 ([4]; substrate dehydroreticuline, product (R)-reticuline, pH 9.0, triplicate mean ± SD): 0.202 ± 0.026 nmol | formation of codeine from codeinone (in words) [5, 6]: did not form codeine | formation of neopine from codeinone (in words) [5, 6]: neopine production within pH values 6 to 8 | nmol product formation at pH 6.0 ([5]; product codeine): 0.0 nmol | nmol product formation at pH 7.0 ([5]; product codeine): 0.0 nmol | nmol product formation at pH 8.0 ([5]; product codeine): 0.0 nmol | nmol product formation at pH 9.0 ([5]; product codeine, triplicate mean ± SD): 0.0 nmol | nmol product formation at pH 6.0 [5, 7]: 0.040 ± 0.020 nmol | nmol product formation at pH 7.0 [5, 7]: 0.005 ± 0.001 nmol | nmol product formation at pH 8.0 [5, 7]: 0.016 ± 0.008 nmol | nmol product formation at pH 9.0 ([5]; product neopine): 0.000 nmol

— patent US10006010B2, “Cytochrome P450 fusion protein” (The University of York, priority 2014, dated 2018)
